Assay [1] concerns the target Thermoproteota archaeon TasR (TaTasR), TIGR-associated protein with an N-terminal RuvC nuclease domain and a Nop domain (Thermoproteota archaeon isolate LB_CRA_1). Briefly: cryo-EM structure; TasR tigRNA1 RNP (16 uM) mixed with a 60-bp DNA target (8 uM) in 29 mM HEPES-KOH pH 7.9, 149 mM KCl, 5 mM MgCl2; 42°C for 1 hour, then on ice for 3 hours; post-cleavage product complex.

The target of assay [2] is Thermoproteota archaeon TasR (TaTasR) (Thermoproteota archaeon isolate LB_CRA_1). Briefly: cryo-EM structure; TasR tigRNA1 RNP (16 uM) mixed with 60-bp target DNA (8 uM), 29 mM HEPES-KOH pH 7.9, 149 mM KCl, 5 mM MgCl2, 42 C for 1 h; 2D classification of the final particles with a large box and a 300 A circular mask.

As a reminder, the stoichiometry N is a count of units in the complex or per binding partner. Substance “Thermoproteota archaeon TasR (TaTasR), TIGR-associated protein with an N-terminal RuvC nuclease domain and a Nop domain (enzyme)” displayed a stoichiometry N in assay [1] of 2.
For “Thermoproteota archaeon TasR (TaTasR) (enzyme)”, the stoichiometry N in assay [2] was 2.

Values taken from paper PMC12045711.
